Consider 1 substance from PMC12175907 (Science Advances, 2025).

One data set deals with DIO GLP-1R KO mice. In words: chronic treatment, food intake and body weight, DIO GLP-1R KO mice. Format: in vivo, mouse. Particulars: GIP-085 300 nmol/kg, semaglutide 3 nmol/kg or combo, sc daily, 16 days; n = 6 per group. The text has this:
(§1) DIO adult male C57BL/6 mice (Taconic) C57BL/6 (n = 23, weighing ~43 g at arrival), GLP-1R KO (germline knockout line: 11549, n = 24, weighing ~38 g at arrival), and GIPR KO mice (germline knockout line: 2886, n = 24, weighing ~35 g at arrival) were used. Upon arrival, mice were individually housed and continued to be fed ad libitum on high-fat/high-sugar diet (60% fat diet, 12492, Research Diets).
(§2) GIPFA-085 (GIP-085), tirzepatide, and GLP-140 were designed and produced by Eli Lilly and Company. GIP-085, GLP-140, and semaglutide (Cayman Chemical) were dissolved in 40 mM tris-HCl buffer (pH 8) and 0.02% Tween 80. For the study in mice, all drugs were injected subcutaneously at a volume of 5 ml/kg of body weight. In rats, all drugs were injected intraperitoneally, at a volume of 1 ml/kg of body weight, except when noted. In shrews, all drugs were injected intraperitoneally at a volume of 10 ml/kg of body weight.
(§3) C57BL/6 wild-type (n = 23), GLP-1R KO (n = 24), and GIPR KO mice (n = 24) received daily subcutaneous administration of GIP-085 (300 nmol/kg), semaglutide (3 nmol/kg), GIP-085/semaglutide combo, or vehicle for 16 days. Food intake and body weight were manually measured daily. […] Body composition of mice was determined using quantitative nuclear magnetic resonance analysis (ECHO MRI, 3-1 Composition Analyzer; Echo Medical Systems). […]

The next data set deals with DIO GIPR KO mice. The data set is described as follows: chronic treatment, food intake and body weight, DIO GIPR KO mice. Format: in vivo, mouse. Particulars: inferred from GIPR KO DIO mice.
From the text: as §1, §2, §3

The test system of data set [1] is shrews. In words: emesis, semaglutide dose-response, shrews. Format: in vivo, Suncus murinus. Particulars: for animals exhibiting emesis / emesis, dose dependence: 120 min; for animals exhibiting emesis: n = 9; for latency to first emetic episode: average of shrews that exhibited emesis, ± SEM; for emesis, dose dependence: 10, 50, 100 and 500 nmol/kg ip. The text has this: (§4) Adult male shrews (S. murinus) weighing ~50 to 80 g (n = 84 total) were bred and maintained in the De Jonghe Lab (University of Pennsylvania). These animals were offspring from a colony previously maintained at the University of Pittsburgh Cancer Institute (C. Horn); a Taiwanese strain was derived from stock originally supplied by the Chinese University of Hong Kong. Shrews were singly housed in plastic cages (37.3 cm by 23.4 cm by 14 cm, Innovive) under a 12-hour/12-hour light/dark cycle in a temperature-controlled and humidity-controlled environment. Animal were fed ad libitum with a mixture of feline (75%, Laboratory Feline Diet 5003, Lab Diet) and mink food (25%, High Density Ferret Diet 5LI4, Lab Diet) and had ad libitum access to tap water except where noted.
To assess the emetogenic effects of semaglutide treatment, shrews (n = 9) were habituated to intraperitoneal injections and to clear plastic observation chambers (23.5 cm by 15.25 cm by 17.8 cm) for two consecutive days prior to experimentation. The animals were injected intraperitoneally with semaglutide (10, 50, 100, and 500 nmol/kg) or vehicle and then video recorded (Vixia HF-R62, Canon) for 120 min. After 120 min, the animals were returned to their cages. Treatment rounds were conducted within-subject and separated by 7 days. Analysis of emetic episodes was measured by a trained observer blinded to treatment groups. Emetic episodes were characterized by strong rhythmic abdominal contractions associated with either oral expulsion from the GI tract (i.e., vomiting) or without the passage of materials (i.e., retching). Latency to the first emetic episode, the total number of emetic episodes, and the number of emetic episodes per minute were quantified.

Data set [2] has as its system shrews. The data set is described as follows: emesis, semaglutide, GIP-085 and combo, shrews. Format: in vivo, Suncus murinus. Particulars: semaglutide 500 nmol/kg ip; 120 min; n = 10.
From the text: as §4
We then evaluated the emetogenic actions of semaglutide (500 nmol/kg), GIP-085 (300 nmol/kg), GIP-085/semaglutide, or vehicle in a different cohort of shrews (n = 10). The animals were habituated to the experimental conditions as described above, injected intraperitoneally with semaglutide ([…]), GIP-085 (300 nmol/kg), GIP-085/semaglutide, or vehicle and then video-recorded (Vixia HF-R62, Canon) for 120 min. After 120 min, the animals were returned to their cages. Treatments were separated by 7 days. Emesis parameters were quantified as described above.

Data set [3] relates to adults with overweight or obesity. The arrangement: method as in 2 sources, ref 4 = [4]; PMID 33567185; doi:10.1056/NEJMoa2032183; 4 J. P. H. Wilding , R. L. Batterham , S. Calanna , M. Davies , L. F. Van Gaal , I. Lingvay , B. M. McGowan , J. Rosenstock , M. T. D. Tran , T. A. Wadden , S. Wharton , K. Yokote , N. Zeuthen , R. F. ||| ref 6 = [6]; PMID 34514682; doi:10.1111/dom.14551; 6 S. Wharton , S. Calanna , M. Davies , D. Dicker , B. Goldman , I. Lingvay , O. Mosenzon , D. M. Rubino , M. Thomsen , T. A. Wadden , S. D. Pedersen , Gastrointestinal tolerability of once-weekly sem. Particulars: cited from earlier work.

For semaglutide, in the data set on DIO GLP-1R KO mice, the “anorectic effects / food intake” value is recorded as “absent” and the body weight result is “absent”. Also, in the data set with DIO GIPR KO mice, the “cross-reactivity at the GIPR” value was “lack of cross-reactivity”. In the data set with shrews [1] (100 nmol/kg ip), the animals exhibiting emesis result was “Twenty-two” and the “latency to first emetic episode” value is 63 ± 14 min. Also, in the data set on shrews [1] (500 nmol/kg ip), the animals exhibiting emesis amounted to 67% and the “latency to first emetic episode” value is recorded as 58 ± 6 min. The “emesis, dose dependence” value with shrews [1] is on record as “dose-dependently induced emesis”. For the same substance, the “emesis, dose dependence” value in the data set on shrews [1] (listed as Semaglutide) is given as “causes emesis in a dose-related manner”. In addition, the “shrews that experienced emesis” value in the data set on shrews [2] amounted to 60%. In addition, in data set [3] (STEP 1), the patients reporting nausea was 44.2% and the patients reporting vomiting is 24.8%. The weight loss result in data set [3] (people with overweight/obesity without type 2 diabetes) is recorded as “double-digit weight loss”. For the same substance, in data set [3] (pooled STEP 1-3 trials), the “participants with dose reduction or temporary treatment interruption (GI side effects)” value is recorded as ~ 12.5% and the “permanent treatment discontinuation (GI side effects)” value is listed as ~ 4.3%.
